# According to patent publication US20220010003A1:
# Columns and labels:
# [1] = biological target: recombinant human periostin (human) (UniProt Q15063); test: ELISA, human periostin coated, biotinylated collagen type I titrated, Avidin-HRP detection
# [2] = biological target: recombinant human periostin (human) (UniProt Q15063); test: ELISA, human periostin coated, biotinylated tenascin C titrated, Avidin-HRP detection
# Sequence of recombinant human periostin (human) (Q15063 22-836 limits assumed): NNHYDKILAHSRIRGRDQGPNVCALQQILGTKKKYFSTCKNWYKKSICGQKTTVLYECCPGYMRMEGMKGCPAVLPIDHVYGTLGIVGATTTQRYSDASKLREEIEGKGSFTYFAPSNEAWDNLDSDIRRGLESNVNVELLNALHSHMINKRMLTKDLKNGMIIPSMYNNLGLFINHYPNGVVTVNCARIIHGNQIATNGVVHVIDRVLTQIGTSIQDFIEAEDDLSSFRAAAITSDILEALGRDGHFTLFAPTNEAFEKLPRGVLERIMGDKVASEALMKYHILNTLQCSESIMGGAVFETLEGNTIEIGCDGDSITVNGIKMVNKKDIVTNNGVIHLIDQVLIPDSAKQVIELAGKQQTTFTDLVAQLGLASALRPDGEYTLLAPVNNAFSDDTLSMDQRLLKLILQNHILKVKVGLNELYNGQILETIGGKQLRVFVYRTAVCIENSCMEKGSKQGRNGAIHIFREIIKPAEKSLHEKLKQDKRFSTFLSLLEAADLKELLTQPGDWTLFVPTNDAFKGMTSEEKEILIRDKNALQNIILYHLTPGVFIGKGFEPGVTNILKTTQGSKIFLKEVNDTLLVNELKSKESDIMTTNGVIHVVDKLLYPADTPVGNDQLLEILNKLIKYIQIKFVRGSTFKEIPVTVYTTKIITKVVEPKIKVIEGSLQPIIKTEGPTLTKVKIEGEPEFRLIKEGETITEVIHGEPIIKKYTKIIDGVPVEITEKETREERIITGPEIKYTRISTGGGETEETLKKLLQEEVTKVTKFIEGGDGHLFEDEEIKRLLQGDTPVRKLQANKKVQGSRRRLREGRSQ
EC80 [1],EC80 [2],Substance
100 nM,,human collagen type I (from UniProt P02452 162-1218; P08123 80-1119)
,0.9 nM,recombinant human tenascin C (from UniProt P24821 23-625)
